Tests used:
[1] = target: human CD3 (CD3 epsilon of the T-cell receptor complex) on Jurkat cells (human) (UniProt P07766); experiment: competition with 125I-UCHT1 tracer on Jurkat cells; competitor at 1 nM
[2] = target: human CD3 (CD3 epsilon of the T-cell receptor complex) on Jurkat cells (human) (UniProt P07766); experiment: competition with 125I-UCHT1 tracer on Jurkat cells; competitor at 100 nM

Sequence of UniProt P07766 (P07766 23-207, one chain of several): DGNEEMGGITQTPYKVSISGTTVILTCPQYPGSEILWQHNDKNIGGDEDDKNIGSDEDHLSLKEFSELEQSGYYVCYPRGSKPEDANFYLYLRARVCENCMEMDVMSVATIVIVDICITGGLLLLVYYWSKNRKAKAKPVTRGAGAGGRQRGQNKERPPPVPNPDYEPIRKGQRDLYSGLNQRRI

Substance: scUCHT1
- % of 125I-UCHT1 bound to cells [1]: 80%
- % of 125I-UCHT1 bound to cells [2]: 0%

— patent publication US20040127682A1
